This is an account of results in publication PMC4169570, “Acyl-Homoserine Lactone Recognition and Response Hindering the Quorum-Sensing Regulator EsaR”.

Where a chain is given by its changes, count along the chain named.

Holding throughout (conditions): protein: recombinant; tags: N-terminal His6-MBP-TEV-Gly5; chain copies: 2; label: 5' TAMRA on strand 1; blunt
The target in series [1] is T1, HMGE F94Y (Pantoea stewartii subsp. stewartii, UniProt P54293 1-249, F94Y).
T1 sequence: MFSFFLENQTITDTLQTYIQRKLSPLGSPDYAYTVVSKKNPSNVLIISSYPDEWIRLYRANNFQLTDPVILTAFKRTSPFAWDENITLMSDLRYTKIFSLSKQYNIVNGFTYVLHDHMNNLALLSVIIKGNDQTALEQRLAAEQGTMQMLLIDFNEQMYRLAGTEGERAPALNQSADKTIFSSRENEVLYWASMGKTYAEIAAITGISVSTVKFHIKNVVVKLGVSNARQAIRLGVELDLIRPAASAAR
Description: fluorescence anisotropy; no AHL; 150 mM NaCl, 6 mM HEPES, 17.5 mM Tris, 3% glycerol, pH 7.6, 25 C, 20 min; 3 nM T-esabox, 0-100 nM protein.

The target in series [2] is T2, HMGE D83E (Pantoea stewartii subsp. stewartii, UniProt P54293 1-249, D83E).
T2 sequence: T1 sequence with D83E, Y94F
The series is described as above.

Series [3] has as its target T3, HMGE (His6-MBP-TEV-Gly5-EsaR wild type) (Pantoea stewartii subsp. stewartii, UniProt P54293 1-249).
T3 sequence: T1 sequence with Y94F
The series is described as above.

Series [4] deals with T4, HMGE A32V (Pantoea stewartii subsp. stewartii, UniProt P54293 1-249, A32V).
T4 sequence: T1 sequence with A32V, Y94F
The series is described as above.

The target in series [5] is T1, HMGE F94Y. In words: fluorescence anisotropy; 1 uM AHL; 150 mM NaCl, 6 mM HEPES, 17.5 mM Tris, 3% glycerol, pH 7.6, 25 C, 20 min; 3 nM T-esabox, 0-100 nM protein.
Series [6] concerns the target T2, HMGE D83E. The series is described as above.
Series [7] concerns the target T3, HMGE (His6-MBP-TEV-Gly5-EsaR wild type). The description is as above.
Series [8] concerns the target T4, HMGE A32V. The series is described as above.

B1: T-esabox (PesaR28 TAMRA/PesaR28R) (dsDNA)
DNA 1: TCTTGCCTGTACTATAGTGCAGGTTAAG
DNA 2: CTTAACCTGCACTATAGTACAGGCAAGA
Regarding B1, the Kd was 3.26 ± 0.93 nM with HMGE F94Y [1]; 4.01 ± 1.13 nM with HMGE D83E [2]; 3.11 ± 0.33 nM in series [3]; 2.18 ± 0.73 nM with HMGE A32V [4]; 2.65 ± 1.03 nM in the series with HMGE F94Y [5]; 2.91 ± 0.58 nM with HMGE D83E [6]. Moreover, the values for the Kd (in series [7]; with HMGE A32V [8]) were 6.19 ± 1.31 nM and 2.33 ± 1.06 nM, respectively.
